Data as given in publication PMC4990970 (2016).

B1: ATPase domain of human Hsp70 (called Hsc70 in the results) (domain or fragment)
chain: not shown
B2: ATPase domain of human Hsp70 (called Hsc70 in the results) (domain or fragment)
chain: not shown
modifications: CaM Ca2+-saturated (holo, 4 Ca2+; 10 mM CaCl2). AtBAG5-long limits are printed. CaM is full length with the initiator Met removed by convention. CaM species is not printed: Met144 in mature numbering fits vertebrate CaM rather than plant CaM (Val144).

What was measured:
[1] = molecular target: AtBAG5-IQR (AtBAG5-long with Ile57, Gln58 and Arg62 substituted with alanine) (Arabidopsis thaliana, UniProt O65373 49-153, Ile57 to alanine | Gln58 to alanine | Arg62 to alanine); assay: ITC
AtBAG5-CaM (with Ca2+) = assay: ITC; with Ca2+ (AtBAG5/holo-CaM complex)
AtBAG5/holo-CaM = AtBAG5/holo-CaM (Arabidopsis thaliana (AtBAG5); Homo …); assay: ITC; with Ca2+; AtBAG5 pre-bound to holo-CaM

Binder	Kd [1] [µM]	Kd (AtBAG5-CaM (with Ca2+)) [µM]	Kd (AtBAG5/holo-CaM) [µM]
B1	0.48	53.3	–
B2	–	–	53.3
